Measurements from patent US9670514B2, “Method for producing polysaccharide” (SANYO CHEMICAL INDUSTRIES, LTD., priority 2011, dated 2017).

Assays:
Assay type in all cases: biochemical
Settings in all cases: 30° C., pH 7.0
[1] = Specific activity of hyaluronan synthase aqueous solution (14C-glucuronic acid uptake)
Protocol: Reaction solution (1) was prepared by adding 10 μL of hyaluronan synthase aqueous solution (B-1) obtained in Preparation 1 to 1 mL of aqueous solution S (50 mM phosphate buffer (pH of 7.0) containing 1 mM uridine diphosphate-glucuronic acid (labeled radioactive radioactivity of 300 mCi/mmol), 1 mM uridine diphosphate-N-acetylglucosamine, 100 mM sodium chloride, 10 mM magnesium chloride, 10 mM dodecylmaltoside, and 5 mM oleic acid). Four such reaction solutions (1) were prepared and allowed to react at 30° C. for 5 minutes, 10 minutes, 15 minutes, and 20 minutes, respectively. Hyaluronan was separated from the unreacted substrate by paper chromatography (developing solvent containing 1 M ammonium acetate (pH of 5.5) and ethanol at a 7:13 ratio, hereinafter the same) using filter paper (Whatman No. 3 MM, hereinafter the same), and then the origin was cut out and immersed in a liquid scintillation cocktail. The radioactive isotope was then measured using a liquid scintillation counter. The amount of hyaluronan synthesis was calculated from the amount of uptake of ^14C-labeled glucuronic acid. The results were 1.6 mg after 5 minutes, 2.9 mg after 10 minutes, 4.2 mg after 15 minutes, and 5.5 mg after 20 minutes. The specific activity of hyaluronan synthase aqueous solution (B-1) was calculated from the relationship between the amount of hyaluronan synthesis and the reaction time. […]

[2] = Activity of uridylyltransferase (G-1) to produce uridine diphosphate-N-acetylglucosamine
Protocol: (§1) Reaction solution (10-1) was prepared by adding 10 μL of uridine triphosphate-monosaccharide-1-phosphate uridylyltransferase aqueous solution (G-1) obtained in Preparation 10 to 1 mL of aqueous solution (50 mM phosphate buffer (pH of 7.0) containing 100 mM sodium chloride, 10 mM magnesium chloride, 10 mM uridine triphosphate, and 10 mM N-acetylglucosamine-1-phosphate). Three such reaction solutions (10-1) were prepared and allowed to react at 30° C. for 5 minutes, 10 minutes, and 15 minutes, respectively. As for the quantity of the produced uridine diphosphate-N-acetylglucosamine, the product was detected with a UV light (260 nm) in HPLC. The activity of uridine triphosphate-monosaccharide-1-phosphate uridylyltransferase to produce uridine diphosphate-N-acetylglucosamine was determined from the amount of uridine diphosphate-N-acetylglucosamine production. The result was 0.1 U/mL.

[3] = Activity of uridylyltransferase (G-1) to produce uridine diphosphate-glucuronic acid
Protocol: as §1
The activity of uridine triphosphate-monosaccharide-1-phosphate uridylyltransferase to produce uridine diphosphate-glucuronic acid was determined in a similar manner as described above, except that an aqueous solution containing “10 mM glucuronic acid 1-phosphate” was used in place of “10 mM N-acetylglucosamine-1-phosphate” and “uridine diphosphate-glucuronic acid” was quantitated in place of “uridine diphosphate-N-acetylglucosamine”. The result was 5 U/μL.

[4] = Specific activity of chondroitin synthase aqueous solution
Protocol: Reaction solution (11) was prepared by adding 10 μL of chondroitin synthase aqueous solution (B-2) obtained in Preparation 11 to 1 mL of aqueous solution T (50 mM phosphate buffer (pH of 7.0) containing 1 mM uridine diphosphate-glucuronic acid (^14C-labeled radioactive isotope-containing uridine diphosphate-glucuronic acid; radioactivity of 300 mCi/mmol), 1 mM uridine diphosphate-N-acetylgalactosamine, 100 mM sodium chloride, 10 mM magnesium chloride, 10 mM dodecylmaltoside, and 5 mM oleic acid). Three such reaction solutions (11) were prepared and allowed to react at 30° C. for 5 minutes, 10 minutes, and 15 minutes, respectively. Chondroitin was separated from the unreacted substrate by paper chromatography using filter paper. Subsequently, the origin was cut out and immersed in a liquid scintillation cocktail, and the radioactive isotope was then measured using a liquid scintillation counter. The yield of chondroitin was calculated from the amount of uptake of ^14C-labeled glucuronic acid. The results were 1.7 μg after 5 minutes, 3.1 μg after 10 minutes, and 4.4 μg after 15 minutes. The specific activity of chondroitin synthase aqueous solution (B-2) was calculated from the relationship between the yield of chondroitin and the reaction time. The result was 0.15 U/mL.

[5] = Specific activity of starch synthase aqueous solution
Protocol: Reaction solution (13) was prepared by adding 10 μL of starch synthase aqueous solution (B-4) obtained in Preparation 13 to 1 mL of aqueous solution V (50 mM phosphate buffer (pH of 7.0) containing 100 mM uridine diphosphate-α-glucose (^14C-labeled radioactive isotope-containing uridine diphosphate-α-glucose; radioactivity of 300 mCi/mmol), 100 mM sodium chloride, 10 mM magnesium chloride, and 5 mM oleic acid). Four such solutions (13) were prepared and allowed to react at 30° C. for 5 minutes, 10 minutes, 15 minutes, and 20 minutes, respectively. Starch was separated from the unreacted substrate by paper chromatography using filter paper, and then the origin was cut out and immersed in a liquid scintillation cocktail. The radioactive isotope was then measured using a liquid scintillation counter. The yield of starch was calculated from the amount of uptake of ^14C-labeled glucose. The results were 1.3 mg after 5 minutes, 2.5 mg after 10 minutes, 3.8 mg after 15 minutes, and 5.2 mg after 20 minutes. The specific activity of starch synthase aqueous solution (B-4) was calculated from the relationship between the yield of starch and the reaction time. The result was 0.15 U/μL.

B1: hyaluronan synthase aqueous solution (B-1): FLAG-tagged hyaluronan synthase, SEQ ID NO: 1, from Streptococcus equisimilis, expressed in E. coli (protein)
chain: MPIFKKTLIVLSFIFLISILIYLNMYLFGTSTVGIYGVILITYLVIKLGLSFLYEPFKGNPHDYKVAAVIPSYNEDAESLLETLKSVLAQTYPLSEIYIVDDGSSNTDAIQLIEEYVNREVDICRNVIVHRSLVNKGKRHAQAWAFERSDADVFLTVDSDTYIYPNALEELLKSFNDETVYAATGHLNARNRQTNLLTRLTDIRYDNAFGVERAAQSLTGNILVCSGPLSIYRREVIIPNLERYKNQTFLGLPVSIGDDRCLTNYAIDLGRTVYQSTARCDTDVPFQLKSYLKQQNRWNKSFFRESIISVKKILSNPIVALWTIFEVVMFMMLIVAIGNLLFNQAIQLDLIKLFAFLSIIFIVALCRNVHYMVKHPASFLLSPLYGILHLFVLQPLKLYSLCTIKNTEWGTRKKVTIFK
modifications: FLAG tag; aqueous solution; STREPTOCOCCUS
With B1 the specific activity [1] was 0.15 U/μL.

B2: uridine triphosphate-monosaccharide-1-phosphate uridylyltransferase aqueous solution (G-1): uridylyltransferase, SEQ ID NO: 10, derived from Arabidopsis (protein)
chain: MASTVDSNFFSSVPALHSNLGLLSPDQIELAKILLENGQSHLFQQWPELGVDDKEKLAFFDQIARLNSSYPGGLAAYIKTAKELLADSKVGKNPYDGFSPSVPSGENLTFGTDNFIEMEKRGVVEARNAAFVLVAGGLGERLGYNGIKVALPRETTTGTCFLQHYIESILALQEASNKIDSDGSERDIPFIIMTSDDTHSRTLDLLELNSYFGMKPTQVHLLKQEKVACLDDNDARLALDPHNKYSIQTKPHGHGDVHSLLYSSGLLHKWLEAGLKWVLFFQDTNGLLFNAIPASLGVSATKQYHVNSLAVPRKAKEAIGGISKLTHVDGRSMVINVEYNQLDPLLRASGFPDGDVNCETGFSPFPGNINQLILELGPYKDELQKTGGAIKEFVNPKYKDSTKTAFKSSTRLECMMQDYPKTLPPTARVGFTVMDIWLAYAPVKNNPEDAAKVPKGNPYHSATSGEMAIYRANSLILQKAGVKVEEPVKQVLNGQEVEVWSRITWKPKWGMIFSDIKKKVSGNCEVSQRSTMAIKGRNVFIKDLSLDGALIVDSIDDAEVKLGGLINNGWTMESVDYKDTSVPEEIRIRGFRFNKVEQLEKKLTQPGKFSVED
modifications: aqueous solution; Arabidopsis
For B2, the “activity to produce uridine diphosphate-N-acetylglucosamine” value [2] was 0.1 U/mL and the “activity to produce uridine diphosphate-glucuronic acid” value [3] was 5 U/μL.

B3: chondroitin synthase aqueous solution (B-2): chondroitin synthase, SEQ ID NO: 11, derived from Pasteurella multocida (protein, listed as Pasteurella multocida)
chain: MNTLSQAIKAYNSNDYELALKLFEKSAETYGRKIVEFQIIKCKEKLSTNSYVSEDKKNSVCDSSLDIATQLLLSNVKKLTLSESEKNSLKNKWKSITGKKSENAEIRKVELVPKDFPKDLVLAPLPDHVNDFTWYKNRKKSLGIKPVNKNIGLSIIIPTFNRSRILDITLACLVNQKTNYPFEVVVADDGSKENLLTIVQKYEQKLDIKYVRQKDYGYQLCAVRNLGLRTAKYDFVSILDCDMAPQQLWVHSYLTELLEDNDIVLIGPRKYVDTHNITAEQFLNDPYLIESLPETATNNNPSITSKGNISLDWRLEHFKKTDNLRLCDSPFRYFSCGNVAFSKEWLNKVGWFDEEFNHWGGEDVEFGYRLFAKGCFFRVIDGGMAYHQEPPGKENETDREAGKSITLKIVKEKVPYIYRKLLPIEDSHIHRIPLVSIYIPAYNCANYIQRCVDSALNQTVVDLEVCICNDGSTDNTLEVINKLYGNNPRVRIMSKPNGGIASASNAAVSFAKGYYIGQLDSDDYLEPDAVELCLKEFLKDKTLACVYTTNRNVNPDGSLIANGYNWPEFSREKLTTAMIAHHFRMFTIRAWHLTDGFNENIENAVDYDMFLKLSEVGKFKHLNKICYNRVLHGDNTSIKKLGIQKKNHFVVVNQSLNRQGINYYNYDKFDDLDESRKYIFNKTAEYQEEMDILKDLKLIQNKDAKIAVSIFYPNTLNGLVKKLNNIIEYNKNIFVIILHVDKNHLTPDIKKEILAFYHKHQVNILLNNDISYYTSNRLIKTEAHLSNINKLSQLNLNCEYIIFDNHDSLFVKNDSYAYMKKYDVGMNFSALTHDWIEKINAHPPFKKLIKTYFNDNDLRSMNVKGASQGMFMKYALPHELLTIIKEVITSCQSIDSVPEYNTEDIWFQFALLILEKKTGHVFNKTSTLTYMPWERKLQWTNEQIQSAKKGENIPVNKFIINSITL
modifications: aqueous solution
B3 showed a specific activity [4] of 0.15 U/mL.

B4: starch synthase aqueous solution (B-4): starch synthase, SEQ ID NO: 13, derived from Saccharomyces cerevisiae (protein, listed as Saccharomyces cerevisiae)
chain: MSRDLQNHLLFETATEVANRVGGIYSVLKSKAPITVAQYKDHYHLIGPLNKATYQNEVDILDWKKPEAFSDEMRPVQHALQTMESRGVHFVYGRWLIEGAPKVILFDLDSVRGYSNEWKGDLWSLVGIPSPENDFETNDAILLGYTVAWFLGEVAHLDSQHAIVAHFHEWLAGVALPLCRKRRIDVVTIFTTHATLLGRYLCASGSFDFYNCLESVDVDHEAGRFGIYHRYCIERAAAHSADVFTTVSQITAFEAEHLLKRKPDGILPNGLNVIKFQAFHEFQNLHALKKEKINDFVRGHFHGCFDFDLDNTLYFFIAGRYEYKNKGADMFIEALARLNYRLKVSGSKKTVVAFIVMPAKNNSFTVEALKGQAEVRALENTVHEVTTSIGKRIFDHAIRYPHNGLTTELPTDLGELLKSSDKVMLKRRILALRRPEGQLPPIVTHNMVDDANDLILNKIRQVQLFNSPSDRVKMIFHPEFLNANNPILGLDYDEFVRGCHLGVFPSYYEPWGYTPAECTVMGVPSITTNVSGFGAYMEDLIETNQAKDYGIYIVDRRFKAPDESVEQLVDYMEEFVKKTRRQRINQRNRTERLSDLLDWKRMGLEYVKARQLALRRGYPDQFRELVGEELNDSNMDALAGGKKLKVARPLSVPGSPRDLRSNSTVYMTPGDLGTLQEVNNADDYFSLGVNPAADDDDDGPYADDS
B4 gave a specific activity [5] of 0.15 U/μL.
